Data reported in patent US20100221748A1.

Biological target: T1, RB-C fusion protein (residues 701-928) (UniProt P06400)
T1 sequence: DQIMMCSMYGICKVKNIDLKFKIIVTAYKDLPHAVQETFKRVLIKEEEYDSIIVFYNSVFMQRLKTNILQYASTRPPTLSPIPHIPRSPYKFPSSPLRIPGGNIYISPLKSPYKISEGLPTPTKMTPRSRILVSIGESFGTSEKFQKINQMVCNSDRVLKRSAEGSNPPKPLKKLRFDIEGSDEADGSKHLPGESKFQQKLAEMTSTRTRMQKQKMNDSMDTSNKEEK

Substance: AMPK holoenzyme (α/β/γ heterotrimers)
- nonradioactive in vitro kinase assay; phosphorylation monitored by immunoblot using phospho-Rb800/804 antibody: AMPK directly phosphorylated Rb at Ser804 and that this modification could be inhibited by the AMPK inhibitor, compound C
